Results from paper PMC3222324, “PEGylating a bacteriophage endolysin inhibits its bactericidal activity” (AMB Express, 2011).

Biological target: the molecule itself
Assay: non-reducing SDS-PAGE; purified enzyme, not reduced; 37 kDa and 74 kDa bands (Figure 1, lane 2)

B1: Cpl-1^C45S;D194C (enzyme, pneumococcal phage, UniProt P15057 1-339, looked up)
chain: MVKKNDLFVDVSSHNGYDITGILEQMGTTNTIIKISESTTYLNPSLSAQVEQSNPIGFYHFARFGGDVAEAEREAQFFLDNVPMQVKYLVLDYEDDPSGDAQANTNACLRFMQMIADAGYKPIYYSYKPFTHDNVDYQQILAQFPNSLWIAGYGLNDGTANFEYFPSMDGIRWWQYSSNPFDKNIVLLDDEEDCKPKTAGTWKQDSKGWWFRRNNGSFPYNKWEKIGGVWYYFDSKGYCLTSEWLKDNEKWYYLKDNGAMATGWVLVGSEWYYMDDSGAMVTGWVKYKNNWYYMTNERGNMVSNEFIKSGKGWYFMNTNGELADNPSFTKEPDGLITVA
notes: Cpl-1, pneumococcal phage lysin (endolysin); gene originally carried on plasmid pJML6; expected 37 kDa band; Purified preparation holds the 37 kDa monomer and a 74 kDa disulfide-linked dimer; construct described in Resch et al., 2011; source: E. coli DH5α, purified (DEAE-Sepharose, eluted with choline)
With B1 the “stoichiometry N” value was 2.
